Assays:
Settings in all cases: 0-30 nM lacritin
[1] = molecular target: collagen I (Homo sapiens, UniProt P02452+P08123); assay: ECM binding ELISA
Method: (§1) Binding studies were carried out in 96 well plates coated with 10 μg/well of collagen IV, laminin-1, entactin/nidogen-1, collagen I, fibronectin, vitronectin, EGF, heparin or BMS. Wells were washed, blocked (PBS-T), incubated with 0-30 nM lacritin (in PBS-T containing 1% BSA) for 1 hr (4° C.), washed and detected with anti-lacritin antibody (1/1000) by ELISA.

[2] = molecular target: fibronectin (Homo sapiens, UniProt P02751); assay: ECM binding ELISA
fibronectin, sequence (P02751 32-2477, species assumed): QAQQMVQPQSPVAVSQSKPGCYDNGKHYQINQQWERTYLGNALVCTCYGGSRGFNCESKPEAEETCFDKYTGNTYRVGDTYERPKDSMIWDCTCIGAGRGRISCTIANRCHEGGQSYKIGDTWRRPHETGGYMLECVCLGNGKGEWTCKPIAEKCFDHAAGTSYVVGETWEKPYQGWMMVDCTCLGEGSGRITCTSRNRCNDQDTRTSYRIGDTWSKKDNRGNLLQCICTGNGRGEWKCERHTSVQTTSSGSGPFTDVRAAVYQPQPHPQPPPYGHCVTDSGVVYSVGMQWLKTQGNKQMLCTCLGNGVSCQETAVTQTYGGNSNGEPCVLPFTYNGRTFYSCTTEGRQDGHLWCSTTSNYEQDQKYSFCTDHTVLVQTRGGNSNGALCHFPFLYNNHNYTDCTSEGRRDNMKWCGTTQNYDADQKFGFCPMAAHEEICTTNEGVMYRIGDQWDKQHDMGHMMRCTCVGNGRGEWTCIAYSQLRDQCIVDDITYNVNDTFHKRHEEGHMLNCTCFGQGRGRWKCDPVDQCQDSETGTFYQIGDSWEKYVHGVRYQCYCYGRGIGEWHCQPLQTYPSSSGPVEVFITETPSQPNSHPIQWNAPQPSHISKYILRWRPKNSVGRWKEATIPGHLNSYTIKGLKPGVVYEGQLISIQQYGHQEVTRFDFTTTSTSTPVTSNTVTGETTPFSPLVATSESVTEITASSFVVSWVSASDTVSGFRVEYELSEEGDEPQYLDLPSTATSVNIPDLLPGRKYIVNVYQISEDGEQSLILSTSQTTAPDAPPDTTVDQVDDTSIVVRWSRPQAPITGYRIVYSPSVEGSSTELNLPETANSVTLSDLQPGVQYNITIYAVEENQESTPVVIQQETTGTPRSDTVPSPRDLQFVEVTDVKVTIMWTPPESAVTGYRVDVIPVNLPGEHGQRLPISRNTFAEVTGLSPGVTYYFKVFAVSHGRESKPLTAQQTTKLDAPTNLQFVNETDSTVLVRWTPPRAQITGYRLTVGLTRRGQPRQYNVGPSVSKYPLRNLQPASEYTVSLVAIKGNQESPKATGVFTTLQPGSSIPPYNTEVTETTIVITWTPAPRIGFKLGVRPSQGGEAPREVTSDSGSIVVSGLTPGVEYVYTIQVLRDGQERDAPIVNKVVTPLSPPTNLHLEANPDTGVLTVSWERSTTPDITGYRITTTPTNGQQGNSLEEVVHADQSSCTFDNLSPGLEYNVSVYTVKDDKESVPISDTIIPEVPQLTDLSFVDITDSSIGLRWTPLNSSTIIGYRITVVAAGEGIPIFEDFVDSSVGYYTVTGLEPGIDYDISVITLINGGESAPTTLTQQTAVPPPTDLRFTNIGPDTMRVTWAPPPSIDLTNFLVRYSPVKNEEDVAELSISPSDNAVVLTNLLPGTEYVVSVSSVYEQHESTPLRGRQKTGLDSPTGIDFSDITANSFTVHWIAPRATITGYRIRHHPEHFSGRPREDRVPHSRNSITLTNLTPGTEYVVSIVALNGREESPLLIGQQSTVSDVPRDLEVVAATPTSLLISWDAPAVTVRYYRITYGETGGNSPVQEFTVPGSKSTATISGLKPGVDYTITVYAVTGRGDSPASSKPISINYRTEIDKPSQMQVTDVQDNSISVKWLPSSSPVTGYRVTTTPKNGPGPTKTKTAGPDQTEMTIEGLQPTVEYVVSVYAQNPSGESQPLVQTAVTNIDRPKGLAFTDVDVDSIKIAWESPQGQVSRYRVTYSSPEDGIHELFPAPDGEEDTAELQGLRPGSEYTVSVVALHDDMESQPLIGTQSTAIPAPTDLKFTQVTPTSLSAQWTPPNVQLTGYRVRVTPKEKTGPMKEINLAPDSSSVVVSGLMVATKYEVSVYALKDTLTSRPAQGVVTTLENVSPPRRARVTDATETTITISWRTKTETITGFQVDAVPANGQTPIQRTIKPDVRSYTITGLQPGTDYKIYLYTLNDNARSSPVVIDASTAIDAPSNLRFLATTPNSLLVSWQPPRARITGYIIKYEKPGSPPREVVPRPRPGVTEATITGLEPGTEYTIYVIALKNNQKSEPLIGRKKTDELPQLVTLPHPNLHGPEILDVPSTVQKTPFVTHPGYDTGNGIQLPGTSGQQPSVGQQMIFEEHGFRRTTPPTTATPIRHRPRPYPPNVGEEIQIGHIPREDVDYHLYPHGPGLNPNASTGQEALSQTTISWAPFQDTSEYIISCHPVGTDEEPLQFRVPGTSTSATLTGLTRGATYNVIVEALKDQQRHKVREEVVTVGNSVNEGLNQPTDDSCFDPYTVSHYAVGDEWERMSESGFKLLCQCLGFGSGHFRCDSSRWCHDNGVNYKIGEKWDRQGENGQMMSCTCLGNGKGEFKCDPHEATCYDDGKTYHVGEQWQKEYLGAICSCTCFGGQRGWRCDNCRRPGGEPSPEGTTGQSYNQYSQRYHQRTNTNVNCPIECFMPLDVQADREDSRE
Method: as §1

[3] = molecular target: EGF (Homo sapiens, UniProt P01133); assay: ECM binding ELISA
EGF, sequence (P01133 971-1023 limits assumed, species assumed): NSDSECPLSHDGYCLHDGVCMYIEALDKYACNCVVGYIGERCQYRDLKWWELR
Method: as §1

[4] = ECM binding ELISA
Method: as §1

[5] = system: laminin-1; assay: ECM binding ELISA
Method: as §1

[6] = system: collagen IV; assay: ECM binding ELISA
Method: as §1

[7] = molecular target: T1, vitronectin (Homo sapiens, UniProt P04004); assay: ECM binding ELISA
T1 sequence (P04004 20-478): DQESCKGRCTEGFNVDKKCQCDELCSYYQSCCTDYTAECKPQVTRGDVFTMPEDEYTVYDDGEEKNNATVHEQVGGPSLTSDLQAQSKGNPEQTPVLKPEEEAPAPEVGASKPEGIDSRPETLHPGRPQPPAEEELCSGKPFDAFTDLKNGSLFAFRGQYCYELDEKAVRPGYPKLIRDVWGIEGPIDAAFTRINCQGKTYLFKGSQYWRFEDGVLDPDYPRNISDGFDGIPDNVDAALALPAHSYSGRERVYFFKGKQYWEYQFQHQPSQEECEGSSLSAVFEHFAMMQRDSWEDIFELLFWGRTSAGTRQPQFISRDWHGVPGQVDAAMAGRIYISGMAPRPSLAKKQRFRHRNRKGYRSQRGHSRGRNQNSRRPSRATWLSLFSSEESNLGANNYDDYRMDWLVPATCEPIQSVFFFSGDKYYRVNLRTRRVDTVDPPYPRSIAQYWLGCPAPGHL
Method: as §1

[8] = molecular target: T2, nidogen/entactin (Homo sapiens, UniProt P14543); assay: ECM binding ELISA
T2 sequence (P14543 29-1247): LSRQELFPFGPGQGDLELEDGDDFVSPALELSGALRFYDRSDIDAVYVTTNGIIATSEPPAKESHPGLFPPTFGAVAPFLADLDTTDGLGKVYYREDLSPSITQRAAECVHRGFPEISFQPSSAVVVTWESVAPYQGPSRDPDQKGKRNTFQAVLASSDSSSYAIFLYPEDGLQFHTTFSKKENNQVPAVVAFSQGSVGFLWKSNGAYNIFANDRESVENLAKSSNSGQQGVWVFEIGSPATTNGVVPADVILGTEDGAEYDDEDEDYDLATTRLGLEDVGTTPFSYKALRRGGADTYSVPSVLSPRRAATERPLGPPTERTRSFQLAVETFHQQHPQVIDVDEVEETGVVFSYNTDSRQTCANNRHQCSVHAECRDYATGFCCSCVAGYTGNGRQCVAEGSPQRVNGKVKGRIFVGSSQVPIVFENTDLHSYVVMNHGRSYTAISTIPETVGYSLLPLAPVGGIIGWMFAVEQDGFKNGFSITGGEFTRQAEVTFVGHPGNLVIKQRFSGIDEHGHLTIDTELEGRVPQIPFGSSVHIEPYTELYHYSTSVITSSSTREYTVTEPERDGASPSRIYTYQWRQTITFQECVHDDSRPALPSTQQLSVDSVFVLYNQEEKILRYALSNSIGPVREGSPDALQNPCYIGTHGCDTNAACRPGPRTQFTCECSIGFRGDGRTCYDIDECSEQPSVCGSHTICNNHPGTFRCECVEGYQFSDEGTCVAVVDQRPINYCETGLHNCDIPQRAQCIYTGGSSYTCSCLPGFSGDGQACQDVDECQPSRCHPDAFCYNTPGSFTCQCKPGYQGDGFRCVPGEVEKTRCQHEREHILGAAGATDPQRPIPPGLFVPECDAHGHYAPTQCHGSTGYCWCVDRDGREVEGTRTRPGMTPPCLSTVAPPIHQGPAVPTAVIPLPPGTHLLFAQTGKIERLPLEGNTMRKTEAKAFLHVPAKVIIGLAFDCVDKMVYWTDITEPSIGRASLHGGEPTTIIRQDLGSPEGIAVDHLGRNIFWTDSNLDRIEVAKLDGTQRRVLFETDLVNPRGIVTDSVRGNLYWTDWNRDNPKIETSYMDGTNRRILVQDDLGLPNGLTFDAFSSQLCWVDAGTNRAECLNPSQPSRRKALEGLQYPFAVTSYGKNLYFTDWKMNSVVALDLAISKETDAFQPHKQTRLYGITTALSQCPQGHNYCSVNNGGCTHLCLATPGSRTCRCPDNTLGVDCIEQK
Method: as §1

collagen I, sequence (P02452 162-1218 limits assumed): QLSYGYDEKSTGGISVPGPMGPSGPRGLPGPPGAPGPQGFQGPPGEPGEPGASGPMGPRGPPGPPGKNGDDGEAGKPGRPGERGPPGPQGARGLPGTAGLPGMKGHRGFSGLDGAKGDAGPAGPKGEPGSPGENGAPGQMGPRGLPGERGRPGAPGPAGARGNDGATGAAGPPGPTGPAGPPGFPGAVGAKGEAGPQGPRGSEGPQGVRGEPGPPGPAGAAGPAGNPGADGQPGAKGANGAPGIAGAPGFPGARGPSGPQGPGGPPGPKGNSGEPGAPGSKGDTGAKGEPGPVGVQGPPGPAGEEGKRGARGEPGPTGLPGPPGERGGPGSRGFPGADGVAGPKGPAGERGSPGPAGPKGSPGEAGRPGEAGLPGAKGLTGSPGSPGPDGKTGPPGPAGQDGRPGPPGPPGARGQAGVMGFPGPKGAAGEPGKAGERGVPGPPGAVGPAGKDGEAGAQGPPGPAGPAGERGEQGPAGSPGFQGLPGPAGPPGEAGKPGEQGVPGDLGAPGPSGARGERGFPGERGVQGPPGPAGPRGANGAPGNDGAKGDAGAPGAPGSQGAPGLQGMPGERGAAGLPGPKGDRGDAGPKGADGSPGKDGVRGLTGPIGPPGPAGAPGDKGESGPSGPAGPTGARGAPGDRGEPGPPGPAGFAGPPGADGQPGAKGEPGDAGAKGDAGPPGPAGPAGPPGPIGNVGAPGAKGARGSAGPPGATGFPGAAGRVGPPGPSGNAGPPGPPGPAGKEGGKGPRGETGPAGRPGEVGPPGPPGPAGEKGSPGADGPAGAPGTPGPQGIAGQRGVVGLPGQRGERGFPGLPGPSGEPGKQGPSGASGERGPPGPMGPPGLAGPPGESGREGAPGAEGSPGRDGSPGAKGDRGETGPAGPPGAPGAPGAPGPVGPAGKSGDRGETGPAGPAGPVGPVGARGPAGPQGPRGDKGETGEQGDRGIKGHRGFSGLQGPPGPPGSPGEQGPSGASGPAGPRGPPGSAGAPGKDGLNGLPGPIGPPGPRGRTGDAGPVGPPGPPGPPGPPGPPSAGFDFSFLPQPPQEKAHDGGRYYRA
collagen I, sequence (P08123 80-1119 limits assumed): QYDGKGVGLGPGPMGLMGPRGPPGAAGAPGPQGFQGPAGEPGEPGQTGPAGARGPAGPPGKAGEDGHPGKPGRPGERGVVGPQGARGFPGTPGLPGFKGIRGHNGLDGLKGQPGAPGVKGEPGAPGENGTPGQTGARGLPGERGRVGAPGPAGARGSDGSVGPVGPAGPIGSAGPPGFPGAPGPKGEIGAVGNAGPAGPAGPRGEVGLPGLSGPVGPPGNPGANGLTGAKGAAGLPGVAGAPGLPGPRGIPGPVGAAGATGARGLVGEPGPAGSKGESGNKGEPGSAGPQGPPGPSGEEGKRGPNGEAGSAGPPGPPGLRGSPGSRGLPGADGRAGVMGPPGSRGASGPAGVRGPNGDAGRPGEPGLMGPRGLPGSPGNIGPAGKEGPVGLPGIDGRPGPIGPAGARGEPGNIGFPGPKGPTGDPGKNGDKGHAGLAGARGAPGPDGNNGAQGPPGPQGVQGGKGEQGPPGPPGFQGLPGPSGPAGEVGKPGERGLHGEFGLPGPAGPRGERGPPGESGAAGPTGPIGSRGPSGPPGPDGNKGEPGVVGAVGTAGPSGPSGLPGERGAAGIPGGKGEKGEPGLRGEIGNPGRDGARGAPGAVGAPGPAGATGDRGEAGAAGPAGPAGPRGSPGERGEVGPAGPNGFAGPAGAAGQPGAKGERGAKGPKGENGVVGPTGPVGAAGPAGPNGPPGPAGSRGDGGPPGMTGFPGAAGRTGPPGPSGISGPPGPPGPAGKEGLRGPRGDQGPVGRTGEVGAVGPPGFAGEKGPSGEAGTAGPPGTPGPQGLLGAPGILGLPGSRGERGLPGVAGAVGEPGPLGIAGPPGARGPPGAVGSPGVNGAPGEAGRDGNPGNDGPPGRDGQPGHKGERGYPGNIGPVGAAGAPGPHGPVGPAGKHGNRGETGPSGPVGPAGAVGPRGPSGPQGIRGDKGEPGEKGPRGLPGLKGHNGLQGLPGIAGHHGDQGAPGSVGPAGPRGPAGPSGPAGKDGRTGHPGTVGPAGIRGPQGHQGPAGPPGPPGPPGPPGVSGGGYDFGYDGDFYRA

B1: lacritin: recombinant human lacritin from E. coli; mature 119 residue fragment (SEQ ID NO:10) of native lacritin SEQ ID NO:4 (protein, listed as Homo sapiens)
chain: EDASSDSTGADPAQEAGTSKPNEEISGPAEPASPPETTTTAQETSAAAVQGTAKVTSSRQELNPLKSIVEKSILLTEQALAKAGKGMHGGVPGGKQFIENGSEFAQKLLKKFSLLKPWA
- binding to collagen I [1]: No binding
- binding to fibronectin [2]: remarkable avidity
- binding to EGF [3]: No binding
- binding to heparin [4]: No binding
- binding to laminin-1 [5]: strong basement membrane binding
- binding to collagen IV [6]: strong basement membrane binding
- binding to vitronectin [7]: remarkable avidity
- binding to nidogen/entactin [8]: strong basement membrane binding
